Experimental data reported in patent US20240209113A1 (BEIGENE SWITZERLAND, published 2024).
Where “and” joins values, the source holds several entries; their conditions need not be identical. Equal entries are not always repeated.

What was measured:
Monkey GPC3 = molecular target: T1, Monkey GPC3 (cynomolgous monkey, UniProt A0A2K5VK50 24-553); assay: SPR
T1 construct: Bought protein; also called monkey GPC3 (Cat #GP3-C5225, Acrobiosystem)

[1] = molecular target: T2, Human GPC3 (recombinant protein, Example 11) (human, UniProt P51654 25-559, limits assumed); assay: SPR
FcγRI = FcγRI (UniProt P12314 16-288, limits assumed); assay: ELISA
Sequence of FcγRI (P12314 16-288 limits assumed): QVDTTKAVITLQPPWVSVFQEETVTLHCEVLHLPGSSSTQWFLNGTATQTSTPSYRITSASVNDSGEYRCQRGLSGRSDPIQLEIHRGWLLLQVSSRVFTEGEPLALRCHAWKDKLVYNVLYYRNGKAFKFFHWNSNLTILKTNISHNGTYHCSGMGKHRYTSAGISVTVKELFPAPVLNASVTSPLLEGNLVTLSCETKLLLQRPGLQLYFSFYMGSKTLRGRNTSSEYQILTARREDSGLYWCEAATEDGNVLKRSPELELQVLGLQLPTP

FcγRIIB = molecular target: T3, FcγRIIB (UniProt P31994 43-217, limits assumed); assay: ELISA
T3 sequence (looked up): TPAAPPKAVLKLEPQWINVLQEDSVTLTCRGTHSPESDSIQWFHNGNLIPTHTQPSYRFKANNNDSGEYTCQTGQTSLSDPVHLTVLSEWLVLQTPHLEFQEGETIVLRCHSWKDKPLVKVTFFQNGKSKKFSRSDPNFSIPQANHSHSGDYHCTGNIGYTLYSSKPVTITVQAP

FcγRIIIB = FcγRIIIB (UniProt O75015 17-200, limits assumed); assay: ELISA
Sequence of FcγRIIIB (O75015 17-200 limits assumed): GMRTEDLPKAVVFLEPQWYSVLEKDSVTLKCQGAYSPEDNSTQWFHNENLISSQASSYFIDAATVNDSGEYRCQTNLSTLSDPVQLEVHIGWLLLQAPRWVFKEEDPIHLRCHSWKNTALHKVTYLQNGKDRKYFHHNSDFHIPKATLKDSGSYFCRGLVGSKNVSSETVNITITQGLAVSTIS

FcγRIIIAF158 = FcγRIIIAF158 (UniProt P08637 17-208, limits assumed); assay: ELISA
Sequence of FcγRIIIAF158 (P08637 17-208 limits assumed): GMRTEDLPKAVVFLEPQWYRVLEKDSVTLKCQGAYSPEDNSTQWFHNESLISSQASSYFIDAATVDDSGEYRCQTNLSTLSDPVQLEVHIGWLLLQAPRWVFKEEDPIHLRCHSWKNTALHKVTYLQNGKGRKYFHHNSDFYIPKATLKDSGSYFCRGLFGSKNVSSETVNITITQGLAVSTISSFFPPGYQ

FcγRIIIAV158 = FcγRIIIAV158 (UniProt P08637 17-208, limits assumed); assay: ELISA
Sequence of FcγRIIIAV158 (P08637 17-208 F176V limits assumed): as the sequence (P08637 17-208 limits assumed) above, with F160V counted along it

FcγRIIAR131 = molecular target: T4, FcγRIIAR131 (UniProt P12318 36-218, limits assumed); assay: ELISA
T4 sequence (looked up): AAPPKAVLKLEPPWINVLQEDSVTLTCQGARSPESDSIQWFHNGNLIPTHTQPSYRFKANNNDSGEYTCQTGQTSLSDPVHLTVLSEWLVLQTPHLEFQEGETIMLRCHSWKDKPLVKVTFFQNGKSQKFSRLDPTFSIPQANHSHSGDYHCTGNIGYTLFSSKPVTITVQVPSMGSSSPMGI

FcγRIIAH131 = molecular target: T5, FcγRIIAH131 (UniProt P12318 36-218, limits assumed); assay: ELISA
T5 sequence (looked up): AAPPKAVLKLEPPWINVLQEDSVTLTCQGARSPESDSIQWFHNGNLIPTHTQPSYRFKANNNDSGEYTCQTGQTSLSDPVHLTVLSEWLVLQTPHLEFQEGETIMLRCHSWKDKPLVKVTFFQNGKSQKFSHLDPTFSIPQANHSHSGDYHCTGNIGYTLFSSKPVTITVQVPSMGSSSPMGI

Mouse CD137 = molecular target: T6, Mouse CD137 (mouse, UniProt P20334 24-187, limits assumed); assay: SPR
T6 construct: also called murine CD137
T6 sequence (looked up): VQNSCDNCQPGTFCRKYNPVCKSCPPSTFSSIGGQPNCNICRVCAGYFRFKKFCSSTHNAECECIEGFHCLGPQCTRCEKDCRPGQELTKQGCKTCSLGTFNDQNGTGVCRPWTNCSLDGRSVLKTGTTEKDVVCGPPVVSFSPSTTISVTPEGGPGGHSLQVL

Mouse GPC3 = Mouse GPC3 (mouse, UniProt Q8CFZ4 25-558, limits assumed); assay: SPR
Sequence of Mouse GPC3 (Q8CFZ4 25-558 limits assumed): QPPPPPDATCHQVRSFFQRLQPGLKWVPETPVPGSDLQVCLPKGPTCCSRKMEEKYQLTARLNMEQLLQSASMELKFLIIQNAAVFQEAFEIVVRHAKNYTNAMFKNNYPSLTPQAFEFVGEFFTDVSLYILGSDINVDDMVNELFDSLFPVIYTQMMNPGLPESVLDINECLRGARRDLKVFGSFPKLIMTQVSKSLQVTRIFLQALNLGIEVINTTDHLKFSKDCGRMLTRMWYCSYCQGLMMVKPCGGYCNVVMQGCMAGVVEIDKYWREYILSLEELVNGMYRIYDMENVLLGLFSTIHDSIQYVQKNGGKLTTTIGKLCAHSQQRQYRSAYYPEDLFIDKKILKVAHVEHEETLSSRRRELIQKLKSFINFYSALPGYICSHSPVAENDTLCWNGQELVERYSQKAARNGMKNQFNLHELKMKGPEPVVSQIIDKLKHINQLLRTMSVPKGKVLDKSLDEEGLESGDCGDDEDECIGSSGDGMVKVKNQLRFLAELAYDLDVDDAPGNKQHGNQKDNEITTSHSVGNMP

[2] = molecular target: T7, Human CD137 (recombinant protein, Example 11) (human, UniProt Q07011 24-186); assay: SPR
T7 sequence (Q07011 24-186 limits assumed): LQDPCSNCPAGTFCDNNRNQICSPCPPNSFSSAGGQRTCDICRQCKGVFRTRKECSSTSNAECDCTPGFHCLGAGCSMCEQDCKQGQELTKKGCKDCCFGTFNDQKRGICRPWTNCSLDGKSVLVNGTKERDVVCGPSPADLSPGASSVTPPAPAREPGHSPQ

[3] = molecular target: T8, Monkey CD137 (recombinant protein, Example 11) (cynomolgus monkey, UniProt Q07011 24-186 (human entry), limits assumed); assay: SPR
T8 construct: also called cynomolgus monkey CD137
T8 chain: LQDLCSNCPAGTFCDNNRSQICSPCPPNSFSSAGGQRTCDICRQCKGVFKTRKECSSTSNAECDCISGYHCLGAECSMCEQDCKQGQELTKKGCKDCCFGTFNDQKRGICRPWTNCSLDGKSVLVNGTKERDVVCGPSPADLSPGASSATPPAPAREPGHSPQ

[4] = molecular target: human CD137 ECD mutant P49A (human, UniProt Q07011 24-186); assay: ELISA on wild type and mutant CD137 proteins
Sequence of human CD137 ECD mutant P49A (Q07011 24-186 P49A limits assumed): as the sequence (Q07011 24-186 limits assumed) above, with P26A counted along it

[5] = molecular target: human CD137 ECD mutant F36A (human, UniProt Q07011 24-186); assay: ELISA on wild type and mutant CD137 proteins
Sequence of human CD137 ECD mutant F36A (Q07011 24-186 F36A limits assumed): as the sequence (Q07011 24-186 limits assumed) above, with F13A counted along it

[6] = molecular target: human CD137 ECD mutant P47A (human, UniProt Q07011 24-186); assay: ELISA on wild type and mutant CD137 proteins
Sequence of human CD137 ECD mutant P47A (Q07011 24-186 P47A limits assumed): as the sequence (Q07011 24-186 limits assumed) above, with P24A counted along it

[7] = molecular target: T9, DS50b (human GPC3 AA 511-560) (human, constructed to the N terminal of biotin, generating DS50b-KLH (so in the source)); assay: ELISA on DS50b-KLH [B]
T9 construct: also called DS50b-KLH
T9 peptide: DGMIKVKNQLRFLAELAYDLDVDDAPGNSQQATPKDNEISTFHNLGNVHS

[8] = molecular target: T10, GK28b (human GPC3 AA 537-563) (human, constructed to the N terminal of biotin, generating GK28b-KLH (so in the source)); assay: ELISA on GK28b-KLH [A]
T10 construct: also called GK28b-KLH
T10 peptide: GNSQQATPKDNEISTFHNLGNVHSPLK

human GPC3 on cells [9] = molecular target: T11, human GPC3 on cells (human, UniProt P51654 25-559); assay: FACS on Hepa1-6T-OS8-GPC3 cells
T11 construct: also called Hepa1-6T-OS8-GPC3; GPC3 expressing cells (HepG2, Huh7, Hep3B)

C1q = C1q (UniProt P02745 23-245; P02746 28-253; P02747 29-245); assay: C1q binding ELISA
Sequence of C1q (P02745 23-245, chain 1 of 3): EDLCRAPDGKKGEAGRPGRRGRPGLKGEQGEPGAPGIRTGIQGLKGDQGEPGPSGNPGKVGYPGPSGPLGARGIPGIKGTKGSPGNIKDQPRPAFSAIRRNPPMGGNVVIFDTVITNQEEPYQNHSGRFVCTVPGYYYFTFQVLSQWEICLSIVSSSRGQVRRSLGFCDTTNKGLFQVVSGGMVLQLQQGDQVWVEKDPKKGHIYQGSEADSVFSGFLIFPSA
Sequence of C1q (P02746 28-253, chain 2 of 3): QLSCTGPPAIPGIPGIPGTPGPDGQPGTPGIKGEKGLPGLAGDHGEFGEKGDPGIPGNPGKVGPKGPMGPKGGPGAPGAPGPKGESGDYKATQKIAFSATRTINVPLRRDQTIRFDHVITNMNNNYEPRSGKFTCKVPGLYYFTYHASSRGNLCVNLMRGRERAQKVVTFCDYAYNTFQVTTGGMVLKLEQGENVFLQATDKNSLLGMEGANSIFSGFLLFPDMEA
Sequence of C1q (P02747 29-245, chain 3 of 3): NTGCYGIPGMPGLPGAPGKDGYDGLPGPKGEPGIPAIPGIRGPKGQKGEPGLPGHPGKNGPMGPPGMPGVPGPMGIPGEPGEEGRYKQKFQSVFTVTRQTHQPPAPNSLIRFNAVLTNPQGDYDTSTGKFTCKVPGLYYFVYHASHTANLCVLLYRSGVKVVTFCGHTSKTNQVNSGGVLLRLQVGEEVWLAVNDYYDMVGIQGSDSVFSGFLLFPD

[10] = molecular target: T12, full-length human CD137 on cells (human, UniProt Q07011 24-255); assay: FACS on HuT78/CD137 cells
T12 construct: also called huCD137; native CD137
T12 sequence (Q07011 24-255 limits assumed): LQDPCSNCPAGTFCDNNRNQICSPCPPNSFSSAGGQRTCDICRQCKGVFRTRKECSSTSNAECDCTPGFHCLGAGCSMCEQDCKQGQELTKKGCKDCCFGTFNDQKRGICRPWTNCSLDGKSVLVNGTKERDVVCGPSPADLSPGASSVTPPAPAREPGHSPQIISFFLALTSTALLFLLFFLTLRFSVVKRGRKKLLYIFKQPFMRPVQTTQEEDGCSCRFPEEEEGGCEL

huGPC3-His = molecular target: T13, huGPC3-His (human, UniProt P51654 25-559); assay: ELISA on huGPC3-His [C]
T13 construct: not shown: His tag

[11] = molecular target: T12, full-length human CD137 on cells; assay: cell-based or functional assay
human GPC3 on cells [12] = molecular target: T11, human GPC3 on cells; assay: cell-based or functional assay
[13] = molecular target: T7, Human CD137 (recombinant protein, …); assay: dual antigen binding ELISA with CD137 and GPC3 bound at the same time; which antigen is coated is not stated
[14] = molecular target: T2, Human GPC3 (recombinant protein, …); assay: as above

- Kd (Monkey GPC3): 0.643 nM
- koff (Monkey GPC3): 0.000273 s⁻¹
- kon (Monkey GPC3): 425000 M⁻¹ s⁻¹
- Kd [1]: 0.559 nM
- koff [1]: 0.000312 s⁻¹
- kon [1]: 559000 M⁻¹ s⁻¹
- binding result (FcγRI): no binding
- binding result (FcγRIIB): no binding
- binding result (FcγRIIIB): no binding
- binding result (FcγRIIIAF158): no binding
- binding result (FcγRIIIAV158): no binding
- binding result (FcγRIIAR131): no binding
- binding result (FcγRIIAH131): no binding
- binding result (Mouse CD137): no binding
- binding result (Mouse GPC3): no binding
- Kd [2]: 40.1 nM
- koff [2]: 0.00484 s⁻¹
- kon [2]: 121000 M⁻¹ s⁻¹
- Kd [3]: 19.2 nM
- koff [3]: 0.00291 s⁻¹
- kon [3]: 152000 M⁻¹ s⁻¹
- decrease of binding activity against wild type CD137 [4]: > 75%
- decrease of binding activity against wild type CD137 [5]: > 75%
- decrease of binding activity against wild type CD137 [6]: > 75%
- EC50 (read off the curve) [7]: ~0.009 µg/mL
- EC50 (read off the curve) [8]: ~0.008 µg/mL
- EC50 (human GPC3 on cells [9]): 1.11 µg/mL and 6.41 nM
- EC50 (read off the curve) (C1q): ~2 µg/mL
- EC50 [10]: 0.712 µg/mL and 4.09 nM
- EC50 (read off the curve) (huGPC3-His): ~0.04 µg/mL
- EC50, cell-based bioluminescent assay (NFκB luciferase in JK-NFκB-CD137 co-cultured with Hepa1-6T-OS8-GPC3) [11]: 0.149 µg/ml and 0.86 nM
- EC50, cell-based bioluminescent assay (NFκB luciferase in JK-NFκB-CD137 co-cultured with Hepa1-6T-OS8-GPC3) (human GPC3 on cells [12]): 0.149 µg/ml and 0.86 nM
- EC50 (read off the curve) [13]: ~0.07 µg/mL
- EC50 (read off the curve) [14]: ~0.07 µg/mL
B1: BE-830 (bispecific antibody, human IgG1, kappa)
heavy: QVQLVQSGAEVKKPGASVKVSCKASGYTFTDYEMHWVRQAPGQGLEWMGALDPKTGDTAYSQKFKGRVTLTADKSTSTAYMELSSLTSEDTAVYYCTRFYSYTYWGQGTLVTVSSASTKGPSVFPLAPSSKSTSGGTAALGCLVKDYFPEPVTVSWNSGALTSGVHTFPAVLQSSGLYSLSSVVTVPSSSLGTQTYICNVNHKPSNTKVDKKVEPKSCDKTHTCPPCPAPPAAGPSVFLFPPKPKDTLMISRTPEVTCVVVDVSHEDPEVKFNWYVDGVEVHNAKTKPREEQYNSTYRVVSVLTVLHQDWLNGKEYKCKVSNKALAAPIEKTISKAKGQPREPQVYTLPPSREEMTKNQVSLTCLVKGFYPSDIAVEWESNGQPENNYKTTPPVLDSDGSFFLYSKLTVDKSRWQQGNVFSCSVMHEALHNHYTQKSLSLSPGKGGGGSEVQLLESGGGLVQPGGSLRLSCAASGFTVSAEDVGWVRQAPGKGLEWVSAILDKGGSTYYAESVKGRFTISRDNAKNTLYLQMSSLRAEDTAVYYCARIVYHAGGGVTFDTRGQGTQVTVSS
light: DVVMTQSPLSLPVTPGEPASISCRSSQSLVHSNRNTYLHWYLQKPGQSPQLLIYKVSNRFSGVPDRFSGSGSGTDFTLKISRVEAEDVGVYYCSQNTHVPPTFGQGTKLEIKRTVAAPSVFIFPPSDEQLKSGTASVVCLLNNFYPREAKVQWKVDNALQSGNSQESVTEQDSKDSTYSLSSTLTLSKADYEKHKVYACEVTHQGLSSPVTKSFNRGEC
notes: also called GPC3×CD137 multispecific antibody BE-830; GPC3 x CD137 (BE-830)
